Measurements reported in the supplement of paper PMC7877785.
± gives the uncertainty stated by the source.

Assay: self-splicing fitness, log relative to wild type (ln ratio); higher = more splicing; Tetrahymena group I intron in knt gene, E. coli kanamycin selection, DiMSum; sequences stand for … in CUCUCU…GGAGGGAAAAGUUAUCAGGCAUGCACCUGGUAGCUAGUCUUUAAACCAAUAGAUUGCAUCGGUUUAAAAGGCAAGACCGUCAAAUUGCGGGAAAGGGGUCAACAGCCGUUCAGUACCAAGUCUCAGGGGAAACUUUGAGAUGGCCUUGCAAAGGGUAUGGUAAUAAGCUGACGGACAUGGUCCUAACCACGCAGCCAAGUCCUAAGUCAACAGAUCUUCUGUUGAUAUGGAUGCAGUUCACAGACUAAAUGUCGGUCGGGGAAGAUGUAUUCUUCUCAUAAGAUAUAGUCGGACCUCUCCUUAAUGGGAGCUAGCGGAUGAAGUGAUGCAACACUGGAGCCGCUGGGAACUAAUUUGUAUGCGAAAGUAUAUUGAUUAGUUUUGGAGUACUCGUGGUCG
Summary of the method: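 Pooled colonies went to amplicon sequencing on an Illumina HiSeq 2500 after six replicate transformations. The plates were LB agar with 100 μg/mL carbenicillin, 50 μM IPTG and 0.2% rhamnose, with or without 25 μg/mL kanamycin, incubated overnight at 37°C or 30°C. The E. coli BL21(DE3) library had all eight P1ex-region intron nucleotides randomised, the intron placed in the knt kanamycin-resistance gene on pET-22b(+). DiMSum fitness is the error-weighted combination of replicate fold changes, kanamycin against none, normalised to wild type.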

Sequence	self-splicing fitness (ln) (30 °C)	self-splicing fitness (ln) (37 °C)
AAUCAGCAAUAUUACGCACG	-1.02 ± 0.17	-1.1 ± 0.16
UUACAGCAAUAUUACGGGCC	-3.28 ± 0.19	-3.55 ± 0.42
UUACAGCAAUAUUACGUACA	-0.278 ± 0.087	0.137 ± 0.1
CUCCAGCAAUAUUACGUCUC	-2.97 ± 0.17	-3.71 ± 0.33
AUACAGCAAUAUUACGUGUC	-4.39 ± 0.14	-2.67 ± 0.13
GAUAAGCAAUAUUACGGCCU	-0.624 ± 0.08	-0.592 ± 0.11
CACCAGCAAUAUUACGUUCU	-3.76 ± 0.17	-2.65 ± 0.14
UUAGAGCAAUAUUACGUGUG	-1.27 ± 0.09	-1.11 ± 0.14
ACCAAGCAAUAUUACGGAAU	-3.05 ± 0.11	-1.15 ± 0.096
UUGCAGCAAUAUUACGAACG	-0.781 ± 0.19	-0.482 ± 0.2
UACCAGCAAUAUUACGGCCA	-0.369 ± 0.073	-0.0799 ± 0.097
UAAGAGCAAUAUUACGUGGC	-4.44 ± 0.27	-2.2 ± 0.2
GCAUAGCAAUAUUACGCCCC	-0.129 ± 0.26	0.692 ± 0.34
GUUCAGCAAUAUUACGCACU	-0.633 ± 0.085	0.537 ± 0.12
CUAUAGCAAUAUUACGCUUG	-2.62 ± 0.25	-2.14 ± 0.26
CCGAAGCAAUAUUACGCACG	-1.19 ± 0.074	-0.509 ± 0.092
CUUUAGCAAUAUUACGGAUC	-3.81 ± 0.35	-1.53 ± 0.18
UGAAAGCAAUAUUACGGAAC	-2.58 ± 0.22	-0.53 ± 0.25
GUGUAGCAAUAUUACGGUGG	-3.98 ± 0.35	-3.36 ± 0.31
GAUUAGCAAUAUUACGGAGC	-3.23 ± 0.17	-1.23 ± 0.13
GGCAAGCAAUAUUACGAAUC	-0.875 ± 0.17	-0.687 ± 0.26
UGUAAGCAAUAUUACGUCGC	-3.46 ± 0.33	-1.65 ± 0.2
UAACAGCAAUAUUACGGCCA	-0.28 ± 0.066	-0.439 ± 0.071
GCCUAGCAAUAUUACGGUCU	-1.12 ± 0.067	-1.08 ± 0.078
ACUGAGCAAUAUUACGUGUA	-3.51 ± 0.2	-2.5 ± 0.17

Sequence	self-splicing fitness (ln) (30 °C)	self-splicing fitness (ln) (37 °C)
UUAAAGCAAUAUUACGAGUG	-0.826 ± 0.058	-0.0213 ± 0.08
CCGAAGCAAUAUUACGCUUC	-3.15 ± 0.27	-3.2 ± 0.34
AGUAAGCAAUAUUACGUCCC	-0.303 ± 0.15	0.019 ± 0.18
CGGCAGCAAUAUUACGUGUG	-1.09 ± 0.036	-0.654 ± 0.05
AGGAAGCAAUAUUACGCGGU	-4.18 ± 0.39	-1.31 ± 0.2
UAGUAGCAAUAUUACGACCA	-0.4 ± 0.15	0.221 ± 0.17
GAGAAGCAAUAUUACGGCUG	-0.733 ± 0.088	-0.161 ± 0.12
CAUCAGCAAUAUUACGGGUA	-0.63 ± 0.07	-0.0764 ± 0.079
UUCUAGCAAUAUUACGCCCG	-1.09 ± 0.27	-0.74 ± 0.4
CAGAAGCAAUAUUACGUAUU	-3.79 ± 0.23	-2.28 ± 0.15
UGGUAGCAAUAUUACGUGGC	-3.64 ± 0.32	-3.04 ± 0.34
UAGCAGCAAUAUUACGGCAC	-2.14 ± 0.18	0.167 ± 0.21
UUUGAGCAAUAUUACGGAGA	–	1.09 ± 0.29
UGAGAGCAAUAUUACGACUU	-3.87 ± 0.22	-2.31 ± 0.18
UAUUAGCAAUAUUACGUCAA	-1.86 ± 0.21	-1.34 ± 0.24
GGAGAGCAAUAUUACGGACU	-1.52 ± 0.13	-0.526 ± 0.17
GGUAAGCAAUAUUACGUCAG	-3.79 ± 0.34	-2.52 ± 0.39
UGCUAGCAAUAUUACGGUUG	-0.971 ± 0.06	-0.318 ± 0.082
ACCCAGCAAUAUUACGGGUG	-2.14 ± 0.061	-0.937 ± 0.058
CCAUAGCAAUAUUACGUAUC	-2.32 ± 0.15	-2.01 ± 0.31
AUAGAGCAAUAUUACGCCGG	-2.52 ± 0.31	-1.94 ± 0.47
CACAAGCAAUAUUACGCAGA	-2.72 ± 0.2	-1.43 ± 0.16
GACCAGCAAUAUUACGGAAA	-0.538 ± 0.086	0.437 ± 0.096
GAAGAGCAAUAUUACGCUGG	-1.92 ± 0.24	–
UCGGAGCAAUAUUACGGCGU	-1.82 ± 0.22	-0.847 ± 0.16

Sequence	self-splicing fitness (ln) (30 °C)	self-splicing fitness (ln) (37 °C)
AGCGAGCAAUAUUACGAAAG	–	-0.117 ± 0.3
CGAGAGCAAUAUUACGGUUA	-3.13 ± 0.43	-2.79 ± 0.49
GAUGAGCAAUAUUACGGUUA	-2.77 ± 0.28	-2.47 ± 0.25
AGUUAGCAAUAUUACGCGUC	-3.11 ± 0.48	-0.621 ± 0.33
CACAAGCAAUAUUACGGAAA	-3.04 ± 0.19	-2.99 ± 0.2
ACCUAGCAAUAUUACGGAGU	-3.61 ± 0.13	-2.39 ± 0.12
GAGAAGCAAUAUUACGGUAC	-2.92 ± 0.23	-1.54 ± 0.21
GGUAAGCAAUAUUACGCGCA	-0.159 ± 0.074	-0.401 ± 0.085
UUUUAGCAAUAUUACGUACU	–	0.399 ± 0.37
CUGCAGCAAUAUUACGGGGU	-4.93 ± 0.45	-2.73 ± 0.2
GAACAGCAAUAUUACGGCAA	-0.669 ± 0.094	-0.372 ± 0.091
UUAUAGCAAUAUUACGGCUG	0.0456 ± 0.07	0.442 ± 0.1
UAAUAGCAAUAUUACGAAGG	-3.08 ± 0.17	-1.6 ± 0.17
AAUCAGCAAUAUUACGCGGC	-1.53 ± 0.26	0.179 ± 0.16
ACACAGCAAUAUUACGUUAA	-2.79 ± 0.13	-2.12 ± 0.12
ACUUAGCAAUAUUACGUGAG	-0.348 ± 0.067	-0.0975 ± 0.087
CACUAGCAAUAUUACGCCAU	-3.88 ± 0.44	-2.45 ± 0.28
AGAAAGCAAUAUUACGCUGG	-3.7 ± 0.36	-2.77 ± 0.31
CAGCAGCAAUAUUACGGCAC	-3.25 ± 0.15	-0.851 ± 0.17
CUAGAGCAAUAUUACGUGAU	-1.85 ± 0.09	-0.696 ± 0.1
UUUCAGCAAUAUUACGCGUA	-0.663 ± 0.086	-0.289 ± 0.088
CACUAGCAAUAUUACGAUGG	-0.786 ± 0.062	-0.324 ± 0.084
AAUCAGCAAUAUUACGUACA	-0.484 ± 0.076	0.13 ± 0.1
GACAAGCAAUAUUACGUUUU	-2.69 ± 0.076	-1.97 ± 0.1
AGACAGCAAUAUUACGCAUA	-2.73 ± 0.18	-1.23 ± 0.11

Sequence	self-splicing fitness (ln) (30 °C)	self-splicing fitness (ln) (37 °C)
GAUUAGCAAUAUUACGAACG	-1.09 ± 0.12	0.232 ± 0.13
GCGCAGCAAUAUUACGAGAG	-3.03 ± 0.19	-1.35 ± 0.1
GUAUAGCAAUAUUACGCGAU	-2.03 ± 0.24	-1.73 ± 0.26
CCAAAGCAAUAUUACGUGAC	-4.61 ± 0.32	-2.12 ± 0.26
CACUAGCAAUAUUACGUCAG	-0.817 ± 0.062	0.566 ± 0.071
AGCCAGCAAUAUUACGUUCG	-3.46 ± 0.19	-2.48 ± 0.22
CAUCAGCAAUAUUACGCAUU	-1.36 ± 0.079	-0.544 ± 0.1
CUUUAGCAAUAUUACGGUCC	–	-1.77 ± 0.32
UAAAAGCAAUAUUACGGUUU	-2.78 ± 0.095	-0.178 ± 0.091
UUGUAGCAAUAUUACGGGUA	-1.75 ± 0.094	-0.802 ± 0.099
UUGUAGCAAUAUUACGUGGA	-2.15 ± 0.15	-0.844 ± 0.12
AUUAAGCAAUAUUACGACAA	-0.618 ± 0.096	-0.264 ± 0.11
AUACAGCAAUAUUACGUUGC	-4.31 ± 0.28	-2.21 ± 0.35
CGAAAGCAAUAUUACGGGUU	-3.58 ± 0.21	-2.74 ± 0.19
AGGCAGCAAUAUUACGACAA	-1.26 ± 0.14	-0.976 ± 0.13
UCAAAGCAAUAUUACGAAAG	-3.84 ± 0.31	-1.43 ± 0.18
GCGCAGCAAUAUUACGUAAC	-1.3 ± 0.088	-0.468 ± 0.12
GACAAGCAAUAUUACGACAU	-0.624 ± 0.011	-0.191 ± 0.032
CGCAAGCAAUAUUACGACGC	-3.59 ± 0.2	-2.03 ± 0.16
UAGCAGCAAUAUUACGCAGG	-3.01 ± 0.25	-2.14 ± 0.25
GUCGAGCAAUAUUACGCUUG	–	-2.36 ± 0.33
CCAUAGCAAUAUUACGGUUC	-4.2 ± 0.46	-2.03 ± 0.35
